Values joined by “and” are separate entries in the source; they are usually repeats but may differ in a detail not shown here. Identical values can stand only once. Like-named read-outs stand apart in the source and are kept apart here.
Key:
[1] = Observed, adult GEP-NET N=47, historical data; ref NETTER-1 and Erasmus studies; cited from earlier work
[2] = format: in vivo, adolescent patients; conditions: for Kidneys projected CAD, median (range) / Kidneys projected CAD, mean (SD): coefficient × 4 × 7.4
[3] = Laboratory abnormalities during Cycle 1, safety set; parameters: species or system adolescent patients; conditions: in vivo
[4] = in vivo
[5] = ref NETTER-1, cited from earlier work
[6] = Blood pharmacokinetics after one administration, population approach; format: in vivo, adolescent and adult patients
[7] = Observed, adolescent GEP-NET and PPGL N=11
[8] = adolescents, 11 patients, population approach

C[C@@H](O)[C@H](NC(=O)[C@@H]1CSSC[C@H](NC(=O)[C@@H](Cc2ccccc2)NC(=O)CN2CCN(CC(=O)O)CCN(CC(=O)O)CCN(CC(=O)O)CC2)C(=O)N[C@@H](Cc2ccc(O)cc2)C(=O)N[C@H](Cc2c[nH]c3ccccc23)C(=O)N[C@@H](CCCCN)C(=O)N[C@@H]([C@@H](C)O)C(=O)N1)C(=O)O [177Lu-DOTATATE, [^177Lu]Lu-DOTA-TATE, metal not drawn]
Bone marrow Probability (%) >2 Gy [1]: 6% | Kidneys Probability (%) >29 Gy [1]: 13% | Kidneys absorbed dose coefficient, mean (SD) ([2]; All patients): 0.78 ± 0.28 Gy/GBq and 0.78 (0.28) Gy/GBq | Kidneys absorbed dose coefficient, median (range) ([2]; All patients): 0.71 (0.46–1.3) Gy/GBq | Red marrow (blood) absorbed dose coefficient, mean (SD) ([2]; All patients): 0.026 ± 0.0050 Gy/GBq and 0.026 (0.0050) Gy/GBq | Red marrow (blood) absorbed dose coefficient, median (range) ([2]; All patients): 0.026 (0.019–0.035) Gy/GBq | Red marrow (blood) projected CAD, mean (SD) ([2]; All patients): 0.78 ± 0.15 Gy and 0.78 (0.15) Gy | Red marrow (blood) projected CAD, median (range) ([2]; All patients): 0.76 (0.55–1.0) Gy | Spleen absorbed dose coefficient, mean (SD) ([2]; All patients): 0.74 (0.27) Gy/GBq | Spleen absorbed dose coefficient, median (range) ([2]; All patients): 0.72 (0.28–1.1) Gy/GBq | Spleen projected CAD, mean (SD) ([2]; All patients): 22 (8.1) Gy | Spleen projected CAD, median (range) ([2]; All patients): 21 (8.3–34) Gy | Total body absorbed dose coefficient, mean (SD) ([2]; All patients): 0.040 (0.0095) Gy/GBq | Total body projected CAD, mean (SD) ([2]; All patients): 1.2 (0.28) Gy | Total body projected CAD, median (range) ([2]; All patients): 1.2 (0.66–1.6) Gy | Urinary bladder wall absorbed dose coefficient, mean (SD) ([2]; All patients): 0.55 (0.089) Gy/GBq | Urinary bladder wall absorbed dose coefficient, median (range) ([2]; All patients): 0.52 (0.47–0.68) Gy/GBq | Urinary bladder wall projected CAD, mean (SD) ([2]; All patients): 16 (2.6) Gy | Urinary bladder wall projected CAD, median (range) ([2]; All patients): 15 (14–20) Gy | Tumour absorbed dose coefficient, mean (SD) ([2]; All patients, 18 lesions): 2.0 (1.2) Gy/GBq | Tumour absorbed dose coefficient, median (range) ([2]; All patients, 18 lesions): 1.9 (0.17–5.1) Gy/GBq | Tumour projected CAD, mean (SD) ([2]; All patients, 18 lesions): 58 (37) Gy | Tumour projected CAD, median (range) ([2]; All patients, 18 lesions): 55 (4.9–150) Gy | Pituitary absorbed dose coefficient, mean (SD) ([2]; All patients, n=9): 1.1 (0.43) Gy/GBq | Pituitary absorbed dose coefficient, median (range) ([2]; All patients, n=9): 1.0 (0.61–1.9) Gy/GBq | Pituitary projected CAD, mean (SD) ([2]; All patients, n=9): 33 ± 13 Gy and 33 (13) Gy | Pituitary projected CAD, median (range) ([2]; All patients, n=9): 30 (18–56) Gy | Kidneys projected CAD, median (range) ([2]; All patients): 21 (14–40) Gy | Kidneys absorbed dose coefficient, mean (SD) ([2]; GEP-NET): 0.71 (0.25) Gy/GBq | Kidneys absorbed dose coefficient, median (range) ([2]; GEP-NET): 0.71 (0.46–0.96) Gy/GBq | Red marrow (blood) absorbed dose coefficient, mean (SD) ([2]; GEP-NET): 0.024 (0.0035) Gy/GBq | Red marrow (blood) absorbed dose coefficient, median (range) ([2]; GEP-NET): 0.024 (0.019–0.027) Gy/GBq | Red marrow (blood) projected CAD, mean (SD) ([2]; GEP-NET): 0.70 (0.10) Gy | Red marrow (blood) projected CAD, median (range) ([2]; GEP-NET): 0.72 (0.55–0.79) Gy | Spleen absorbed dose coefficient, mean (SD) ([2]; GEP-NET): 0.63 (0.39) Gy/GBq | Spleen absorbed dose coefficient, median (range) ([2]; GEP-NET): 0.55 (0.28–1.1) Gy/GBq | Spleen projected CAD, mean (SD) ([2]; GEP-NET): 19 (12) Gy | Spleen projected CAD, median (range) ([2]; GEP-NET): 16 (8.3–34) Gy | Total body absorbed dose coefficient, mean (SD) ([2]; GEP-NET): 0.040 (0.013) Gy/GBq | Total body absorbed dose coefficient, median (range) ([2]; GEP-NET): 0.040 (0.022–0.055) Gy/GBq | Total body projected CAD, mean (SD) ([2]; GEP-NET): 1.2 (0.40) Gy | Total body projected CAD, median (range) ([2]; GEP-NET): 1.2 (0.66–1.6) Gy | Urinary bladder wall absorbed dose coefficient, mean (SD) ([2]; GEP-NET): 0.50 (0.034) Gy/GBq | Urinary bladder wall absorbed dose coefficient, median (range) ([2]; GEP-NET): 0.49 (0.47–0.54) Gy/GBq | Urinary bladder wall projected CAD, mean (SD) ([2]; GEP-NET): 15 (1.0) Gy | Urinary bladder wall projected CAD, median (range) ([2]; GEP-NET): 14 (14–16) Gy | Tumour absorbed dose coefficient, mean (SD) ([2]; GEP-NET, 8 lesions): 2.6 (1.2) Gy/GBq | Tumour absorbed dose coefficient, median (range) ([2]; GEP-NET, 8 lesions): 2.3 (1.4–5.1) Gy/GBq | Tumour projected CAD, mean (SD) ([2]; GEP-NET, 8 lesions): 76 ± 35 Gy and 76 (35) Gy | Tumour projected CAD, median (range) ([2]; GEP-NET, 8 lesions): 69 (41–150) Gy | Pituitary absorbed dose coefficient, mean (SD) ([2]; GEP-NET, n=3): 1.2 (0.43) Gy/GBq | Pituitary absorbed dose coefficient, median (range) ([2]; GEP-NET, n=3): 1.1 (0.93–1.7) Gy/GBq | Pituitary projected CAD, mean (SD) ([2]; GEP-NET, n=3): 37 (13) Gy | Pituitary projected CAD, median (range) ([2]; GEP-NET, n=3): 32 (28–51) Gy | Kidneys projected CAD, mean (SD) ([2]; GEP-NET): 21 (7.3) Gy | Kidneys projected CAD, median (range) ([2]; GEP-NET): 21 (14–28) Gy | Kidneys absorbed dose coefficient, mean (SD) ([2]; PPGL): 0.82 (0.32) Gy/GBq | Kidneys absorbed dose coefficient, median (range) ([2]; PPGL): 0.71 (0.55–1.3) Gy/GBq | Pituitary absorbed dose coefficient, mean (SD) ([2]; PPGL): 1.0 (0.45) Gy/GBq | Pituitary absorbed dose coefficient, median (range) ([2]; PPGL): 0.93 (0.61–1.9) Gy/GBq | Pituitary projected CAD, mean (SD) ([2]; PPGL): 31 (13) Gy | Pituitary projected CAD, median (range) ([2]; PPGL): 28 (18–56) Gy | Red marrow (blood) absorbed dose coefficient, mean (SD) ([2]; PPGL): 0.028 (0.0052) Gy/GBq | Red marrow (blood) absorbed dose coefficient, median (range) ([2]; PPGL): 0.029 (0.022–0.035) Gy/GBq | Red marrow (blood) projected CAD, mean (SD) ([2]; PPGL): 0.83 (0.16) Gy | Red marrow (blood) projected CAD, median (range) ([2]; PPGL): 0.87 (0.64–1.0) Gy | Spleen absorbed dose coefficient, mean (SD) ([2]; PPGL): 0.82 (0.17) Gy/GBq | Spleen absorbed dose coefficient, median (range) ([2]; PPGL): 0.81 (0.64–1.1) Gy/GBq | Spleen projected CAD, mean (SD) ([2]; PPGL): 24 (5.0) Gy | Spleen projected CAD, median (range) ([2]; PPGL): 24 (19–31) Gy | Total body absorbed dose coefficient, mean (SD) ([2]; PPGL): 0.041 (0.0073) Gy/GBq | Total body projected CAD, mean (SD) ([2]; PPGL): 1.2 (0.21) Gy | Total body projected CAD, median (range) ([2]; PPGL): 1.2 (0.97–1.5) Gy | Urinary bladder wall absorbed dose coefficient, mean (SD) ([2]; PPGL): 0.59 (0.096) Gy/GBq | Urinary bladder wall absorbed dose coefficient, median (range) ([2]; PPGL): 0.63 (0.47–0.68) Gy/GBq | Urinary bladder wall projected CAD, mean (SD) ([2]; PPGL): 17 (2.8) Gy | Urinary bladder wall projected CAD, median (range) ([2]; PPGL): 19 (14–20) Gy | Tumour absorbed dose coefficient, mean (SD) ([2]; PPGL, 10 lesions): 1.5 (1.1) Gy/GBq | Tumour absorbed dose coefficient, median (range) ([2]; PPGL, 10 lesions): 1.2 (0.17–3.3) Gy/GBq | Tumour projected CAD, mean (SD) ([2]; PPGL, 10 lesions): 44 ± 34 Gy and 44 (34) Gy | Tumour projected CAD, median (range) ([2]; PPGL, 10 lesions): 36 (4.9–98) Gy | Kidneys projected CAD, mean (SD) ([2]; PPGL): 24 (9.3) Gy | Kidneys projected CAD, median (range) ([2]; PPGL): 21 (16–40) Gy | Grade ≥ 3 biochemistry abnormalities [3]: No | deaths by data cutoff [4]: no deaths | patients with AEs that resulted in infusion interruptions [4]: 18% | treatment-related nephrotoxicity [4]: no treatment-related nephrotoxicity was observed | AUClast, geometric mean (geometric CV%) ([5]; Observed, adult GEP-NET N=20): 30.08 (50.38) ng.h/mL | Cmax, geometric mean (geometric CV%) ([5]; Observed, adult GEP-NET N=20): 8.98 (73.28) ng/mL | Tmax, median (range) ([5]; Observed, adult GEP-NET N=20): 0.47 (0.25–1.17) hours | T½β ([5]; adults with GEP-NET): 59.1 h | AUClast, geometric mean (geometric CV%) [6, 7]: 41.00 (24.15) ng.h/mL | Cmax, geometric mean (geometric CV%) [6, 7]: 11.17 (33.04) ng/mL | Tmax, median (range) [6, 7]: 0.58 (0.50–0.77) hours | T½β, population value ([6]; adolescents): 36.9 h | AUCinf, overall mean ± SD [6, 8]: 35.84 ± 4.49 ng·h/mL | Cmax, overall mean ± SD [6, 8]: 10.33 ± 0.54 ng/mL | clearance, overall mean ± SD [6, 8]: 5.98 ± 0.69 L/h

Source: publication PMC12397115 (European Journal of Nuclear Medicine and Molecular Imaging, 2025)
